Results taken from patent publication US20260098102A1 (NATIONAL UNIVERSITY CORPORATION KOBE UNIVERSITY, published 2026).
Substitutions are numbered along the chain they refer to.

T1: monkey SIRPA protein (cynomolgus monkey, UniProt P78324 31-504 (human entry))
T1 construct: Expressed on 293α cells from pcDNA3.2 V5-DEST or pFLAG V5-DEST vectors; also called cynomolgus monkey SIRPA; cSIRPA
T1 chain: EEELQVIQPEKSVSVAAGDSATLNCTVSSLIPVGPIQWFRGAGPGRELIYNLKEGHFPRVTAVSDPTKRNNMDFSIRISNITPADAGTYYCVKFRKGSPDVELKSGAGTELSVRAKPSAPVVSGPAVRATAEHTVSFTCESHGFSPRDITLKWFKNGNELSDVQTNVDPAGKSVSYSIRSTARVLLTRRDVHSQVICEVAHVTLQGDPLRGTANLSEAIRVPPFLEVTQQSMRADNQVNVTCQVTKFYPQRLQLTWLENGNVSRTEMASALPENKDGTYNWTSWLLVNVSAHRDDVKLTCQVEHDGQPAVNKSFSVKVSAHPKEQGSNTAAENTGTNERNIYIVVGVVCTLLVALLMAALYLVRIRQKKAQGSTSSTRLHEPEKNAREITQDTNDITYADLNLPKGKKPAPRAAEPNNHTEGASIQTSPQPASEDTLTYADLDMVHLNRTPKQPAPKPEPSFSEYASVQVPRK

T2: mouse SIRPA_NOD (mouse (NOD), UniProt P97797 32-513)
T2 construct: FLAG-tagged (pFLAG V5-DEST), on 293α cells; also called NOD SCID
T2 chain: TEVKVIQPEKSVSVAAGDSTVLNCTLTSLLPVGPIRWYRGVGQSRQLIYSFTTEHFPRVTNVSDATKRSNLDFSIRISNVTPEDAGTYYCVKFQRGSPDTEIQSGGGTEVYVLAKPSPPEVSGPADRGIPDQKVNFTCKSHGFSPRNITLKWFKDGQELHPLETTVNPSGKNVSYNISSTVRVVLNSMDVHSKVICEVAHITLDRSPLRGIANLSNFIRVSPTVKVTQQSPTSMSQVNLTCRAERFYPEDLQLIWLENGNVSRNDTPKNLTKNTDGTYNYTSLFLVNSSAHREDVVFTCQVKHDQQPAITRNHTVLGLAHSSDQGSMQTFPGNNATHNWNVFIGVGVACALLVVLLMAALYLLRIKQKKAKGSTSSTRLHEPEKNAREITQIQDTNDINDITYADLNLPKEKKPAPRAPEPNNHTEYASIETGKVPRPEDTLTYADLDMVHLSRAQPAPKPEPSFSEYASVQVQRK

B1: humanized anti-SIRPA antibody hD13_H1L3 (antibody, human IgG4 S228P, kappa, F234A L235A, V domains shown)
VH: QVQLVESGGGVVQPGRSLRLSCAASGFTFSDYGMIWVRQAPGKGLEWVASISSSSSYIYYADSVKGRFTISRDNSKNRLYLQMNSLRAEDTAVYYCARRYYGFNYPFDYWGQGTMVTVSS
VL: DTQLTQSPSSLSASVGQRVTITCGASKSVRTYMHWYQQKPGKQPKLLIYSASNLEAGVPSRFSGSGSGTDFTLTISSLQPEDFATYYCQQSNEPPYTFGQGTKLEIKR
notes: hH1 heavy chain (IgG4proFALA) and hL3 kappa light chain; also called hD13_HIL3; HIL3 antibody
B2: humanized anti-SIRPA antibody hD13_H2L3 (antibody, human IgG4 S228P, kappa, F234A L235A, V domains shown)
VH: B1 VH with Q1E, R78T
VL: B1 VL
notes: hH2 heavy chain (IgG4proFALA) and hL3 kappa light chain; also called H2L3 antibody
B3: humanized anti-SIRPA antibody hD13_H2L2 (antibody, human IgG4 S228P, kappa, F234A L235A, V domains shown)
VH: B1 VH with Q1E, R78T
VL: B1 VL with D1A, T2I, Q43A
notes: hH2 heavy chain (IgG4proFALA) and hL2 kappa light chain; also called H2L2 antibody
B4: humanized anti-SIRPA antibody hD13_H1L4 (antibody, human IgG4 S228P, kappa, F234A L235A, V domains shown)
VH: B1 VH
VL: DTVLTQSPDSLAVSLGQRATINCGASKSVRTYMHWYQQKPGQQPKLLIYSASNLEAGVPSRFSGSGSGTDFTLTISSLQAEDVAVYYCQQSNEPPYTFGQGTKVEIKR
notes: hH1 heavy chain (IgG4proFALA) and hL4 kappa light chain; also called hD13_HIL4; hD13_HIL4h
B5: human chimeric anti-SIRPA antibody cD13 (antibody, human IgG4 S228P, kappa, F234A L235A, V domains shown)
VH: EVQLVESGGGLVQPGRSLKLSCLASGFTFSDYGMIWVRQAPGKGLEWVASISSSSSYIYYADTVKGRFTISRENAKNTLFLHMTSLRSEDTALYYCARRYYGFNYPFDYWGQGVMVTVSS
VL: DTVLTQSPALAVSLGQRVTISCGASKSVRTYMHWYQQKSGQQPKLLIYSASNLEAGVPSRFSGSGSGTDFTLTIDPVEADDIANYYCQQSNEPPYTFGAGTKLELKR
notes: Human IgG4proFALA heavy chain, human kappa light chain; also called cD13 (IgG4pf); human chimeric antibody D13

biological target: T3, SIRPA_V1_IgV (human, UniProt P78324 31-149); assay: SPR Biacore T200, antibody captured on anti-human IgG (Fc), SIRPA_V1_IgV as analyte, 1:1 model
T3 construct: Secreted recombinant protein from FreeStyle 293F cells
Method: The dissociation constants of hD13_HIL3, hD13_HIL4, hD13_H2L2, and hD13_H2L3 prepared in Example 7 against human SIRPA_V1_IgV and monkey SIRPA_ECD prepared in Example 1 were measured by a capture method of capturing a humanized antibody as a ligand to an Anti-Human IgG (Fc) antibody immobilized using Human Antibody Capture Kit (GE Healthcare Bioscience Corp.) and measuring an antigen as an analyte, using Biacore T200 (GE Healthcare Bioscience Corp.). HBS-EP+ (GE Healthcare Bioscience Corp.) was used as a running buffer, and CM5 (GE Healthcare Bioscience Corp.) was used as a sensor chip. Onto the chip, 1 μg/mL humanized antibody was added at 10 μL/min for 60 seconds, and then a serially diluted solution (0.5 to 8 μg/mL) of human SIRPA protein or a serially diluted solution (1 to 16 μg/mL) of monkey SIRPA protein was added as an antigen at a flow rate of 30 μL/min for 120 seconds, and subsequently the dissociation phase for 600 seconds was monitored. As a regenerant, 3 M magnesium chloride (GE Healthcare Bioscience Corp.) was added at a flow rate of 20 μL/min for 30 seconds. For data analysis, a binding rate constant (ka), a dissociation rate constant (kd), and a dissociation constant (KD; KD=kd/ka) were calculated using a 1:1 binding model.

T3 sequence (P78324 other isoform, or with tags, fused parts or gaps limits assumed): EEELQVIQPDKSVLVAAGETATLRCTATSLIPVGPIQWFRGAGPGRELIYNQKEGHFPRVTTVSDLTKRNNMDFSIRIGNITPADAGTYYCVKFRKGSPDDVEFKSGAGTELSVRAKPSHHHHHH

| Kd [nM] | Binder |
| --- | --- |
| 0.0785 | B1 |
| 0.0859 | B2 |
| 0.131 | B3 |
| 0.107 | B4 |

biological target: T4, human SIRPA_V2 protein (human, UniProt P78324 31-504); assay: cell-based ELISA on 293α cells expressing FLAG-tagged SIRPA_V2; Abs 490 normalized to FLAG tag [ii]
T4 construct: Expressed on 293α cells from pcDNA3.2 V5-DEST or pFLAG V5-DEST (FLAG-tagged) vectors; also called human SIRPA Variant 2; ECD variant (full-length, amino acids 1 to 504)
Method: (§1) The 293a cells, described in Example 1)-6, were prepared at 5× 10⁵ cells/mL in a 10% FBS-containing DMEM medium. pFLAG V5-DEST-SIRPA_V1-V10, pFLAG V5-DEST-monkey SIRPA, pFLAG V5-DEST-mouse SIRPA, or pFLAG V5-DEST was introduced into the cells using Lipofectamine LTX (Invitrogen), and 100 μL each was aliquoted to a 96-well plate (Corning Incorporated) and cultured overnight in a 10% FBS-containing DMEM medium at 37° C. under a 5% CO₂ condition. The obtained introduced cells were used for cell-based ELISA in a state that they adhered. After the culture supernatant was removed, 50 μL per well of hD13_HIL3, hD13_HIL4h, hD13_H2L2, hD13_H2L3, or cD13 prepared in Examples 6 and 7 or a control antibody was added to each of various SIRPA genes-introduced cells at a final concentration of 0 to 10,000 ng/ml, and the mixture was allowed to stand at 4° C. for one hour. Thereafter, binding to human SIRPA was evaluated in the same manner as in Example 5-1.

| EC50 (read off the curve) [ng/mL] | Binder |
| --- | --- |
| ~30 | B1 |
| ~30 | B2 |
| ~30 | B3 |
| ~30 | B4 |
| ~30 | B5 |

biological target: T5, human SIRPA_V3 (human, UniProt P78324 31-504); assay: cell-based ELISA on 293α cells expressing FLAG-tagged SIRPA_V3; Abs 490 normalized to FLAG tag [iii]
T5 construct: FLAG-tagged (pFLAG V5-DEST), on 293α cells; also called human SIRPA Variant 3
Method: as §1

T5 sequence (P78324 other isoform, or with tags, fused parts or gaps limits assumed): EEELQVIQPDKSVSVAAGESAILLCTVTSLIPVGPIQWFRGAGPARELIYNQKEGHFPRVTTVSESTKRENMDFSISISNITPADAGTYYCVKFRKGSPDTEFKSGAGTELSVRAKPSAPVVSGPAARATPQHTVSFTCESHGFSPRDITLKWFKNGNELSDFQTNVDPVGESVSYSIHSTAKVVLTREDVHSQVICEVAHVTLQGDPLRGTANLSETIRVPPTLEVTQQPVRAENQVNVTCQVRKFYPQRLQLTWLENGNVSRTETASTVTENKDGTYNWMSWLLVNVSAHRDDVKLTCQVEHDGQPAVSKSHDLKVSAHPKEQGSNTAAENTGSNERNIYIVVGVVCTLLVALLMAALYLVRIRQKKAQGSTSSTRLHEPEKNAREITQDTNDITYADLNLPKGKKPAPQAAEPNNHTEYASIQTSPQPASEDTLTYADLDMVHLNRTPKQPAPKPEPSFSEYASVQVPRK

| EC50 (read off the curve) [ng/mL] | Binder |
| --- | --- |
| ~30 | B1 |
| ~40 | B2 |
| ~40 | B3 |
| ~30 | B4 |
| ~40 | B5 |

Biological target: T1, monkey SIRPA protein
Assay: cell-based ELISA on 293α cells expressing FLAG-tagged monkey SIRPA; Abs 490 normalized to FLAG tag [iii]
Method: as §1

| EC50 (read off the curve) [ng/mL] | Binder |
| --- | --- |
| ~30 | B1 |
| ~30 | B2 |
| ~30 | B3 |
| ~30 | B4 |
| ~30 | B5 |

Biological target: T2, mouse SIRPA_NOD
Assay: cell-based ELISA on 293α cells expressing FLAG-tagged mouse SIRPA (NOD); Abs 490 normalized to FLAG tag [i]
Method: as §1

| binding result | Binder |
| --- | --- |
| no binding (tested: 10000 ng/mL) | B1 |
| no binding (tested: 10000 ng/mL) | B2 |
| no binding (tested: 10000 ng/mL) | B3 |
| no binding (tested: 10000 ng/mL) | B4 |
| no binding (tested: 10000 ng/mL) | B5 |
